T1: IDE (Rattus norvegicus, UniProt P35559)
T1 construct: hexahistidine (N); made in house; host or cells: Sf9 insect cells (baculovirus, pFastBac HTb)
T1 sequence (P35559 41-1019): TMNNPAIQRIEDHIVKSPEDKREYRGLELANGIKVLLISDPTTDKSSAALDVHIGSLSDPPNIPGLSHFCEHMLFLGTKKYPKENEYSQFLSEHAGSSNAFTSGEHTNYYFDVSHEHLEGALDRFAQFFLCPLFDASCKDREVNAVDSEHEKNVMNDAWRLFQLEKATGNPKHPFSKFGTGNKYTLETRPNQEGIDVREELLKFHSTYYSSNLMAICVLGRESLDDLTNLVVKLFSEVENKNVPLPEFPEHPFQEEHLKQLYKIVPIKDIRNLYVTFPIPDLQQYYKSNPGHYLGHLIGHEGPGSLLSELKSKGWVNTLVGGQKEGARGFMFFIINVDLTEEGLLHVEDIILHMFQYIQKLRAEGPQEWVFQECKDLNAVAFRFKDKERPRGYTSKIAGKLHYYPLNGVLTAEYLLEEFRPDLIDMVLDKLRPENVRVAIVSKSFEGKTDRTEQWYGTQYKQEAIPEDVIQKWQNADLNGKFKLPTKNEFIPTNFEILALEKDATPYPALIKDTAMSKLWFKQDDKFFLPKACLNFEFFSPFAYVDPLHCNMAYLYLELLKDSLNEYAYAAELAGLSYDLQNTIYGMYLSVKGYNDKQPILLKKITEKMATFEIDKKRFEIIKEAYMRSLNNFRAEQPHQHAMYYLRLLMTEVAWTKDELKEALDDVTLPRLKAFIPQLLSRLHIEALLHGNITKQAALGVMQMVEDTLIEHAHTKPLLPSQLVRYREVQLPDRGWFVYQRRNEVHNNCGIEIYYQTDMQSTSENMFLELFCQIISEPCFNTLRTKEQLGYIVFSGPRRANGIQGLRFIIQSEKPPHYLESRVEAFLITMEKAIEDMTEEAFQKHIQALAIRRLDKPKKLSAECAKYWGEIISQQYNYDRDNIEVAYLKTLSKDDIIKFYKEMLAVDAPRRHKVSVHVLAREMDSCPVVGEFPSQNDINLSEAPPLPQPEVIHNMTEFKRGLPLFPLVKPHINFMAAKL


Assays:
IDE = target: T1, IDE; assay: γ-methylene-ATP versus ATP activation of IDE-dependent hydrolysis of Abz-[…]-EDDnp; format: biochemical; details: 10 μM substrate, compared with ATP
Description: Activity was determined in 50 mM Tris-HCl, pH 7.4 with 10 μM Abz-[…]-EDDnp (SEQ ID NO:3) as substrate and indicated concentrations of ATP or γ-methylene-ATP. Reactions contained 0.1 μg of protein.
(§1) IDE activity was determined by measuring the increase in fluorescence that occurs when the enzyme cleaves the internally quenched fluorogenic substrate Abz-[…]-EDDnp (SEQ ID NO:3) at the R—K bond (Song et al., Journal of Biologial Chemistry 276, 1152-1155 (2001)). The reaction was followed on a SpectraMax Gemini XS fluorescence plate reader using an excitation and emission wavelengths of 318 nm and 419 nm, respectively. Initial velocities were determined using SoftMax Pro 4.0 and kinetic constants calculated using GraphPad Prism 4.0. ATPase activity was measured by following Pi release with acid-molybdate as described by Harder et al. (Harder et al., Biochemical Journal 298 (Pt 2), 395-401 (1994)).

Abz-GGFLRKHGQ-EDDnp [1] = assay: Activation by ATP of Abz-[…]-EDDnp hydrolysis, IDE and ATP binding site mutants; format: biochemical; details: 10 μM Abz-GGFLRKHGQ-EDDnp as substrate
Description: Activity was determined in 50 mM Tris-HCl, pH 7.4 with 10 μM Abz-[…]-EDDnp (SEQ ID NO:3) as substrate at the indicated concentrations of ATP (panel A), PPPi (panel B) or, TNP-ATP (panel C). Each reaction contained 0.5 μg of enzyme.
as §1

Abz-GGFLRKHGQ-EDDnp [2] = assay: Effect of bradykinin on Abz-[…]-EDDnp hydrolysis, IDE and ATP binding site mutants; format: biochemical; details: 10 μM substrate, bradykinin as activator
Description: Activity was determined in 50 mM Tris-HCl, pH 7.4 with 10 μM Abz-[…]-EDDnp (SEQ ID NO:3) as substrate and indicated concentrations of bradykinin. Reactions contained 0.5 μg of protein.
as §1

Saccharomyces cerevisiae = assay: IDE activity assay in yeast, serial dilution mating test; format: cell-based; details: yeast assays
Description: Panel A depicts immunoblot of yeast-expressed IDE and IDE^K898A,K899A,S901A. Equivalent percentage amounts of total cellular extracts from yeast containing an empty expression vector or plasmids encoding IDE or the IDE^K898A,K899A,S901A mutant were analyzed by SDS-PAGE and immunoblotting using an IDE-specific antibody. […] An excess of MATa yeast were mixed with decreasing numbers of MATa cells deficient for Axl1p and Step 23p that were transformed with either an empty expression vector or a vector encoding IDE or IDE^K898A,K899A,S901A as indicated. Mating, which leads to colony growth, is dependent on production of mature a-factor pheromone by plasmid-encoded IDE. […] Concentrated samples of a-factor recovered from yeast bearing the indicated expression vector were spotted at the indicated dilutions on a lawn of RC757 MATa cells, which undergo growth arrest upon exposure to a-factor pheromone. […]
The assays take advantage of the ability of IDE, in lieu of the yeast M16 metallopeptidases Axl1p and Step 23p, to participate in the proteolytic maturation of yeast a-factor mating pheromone. […] Growth of diploid colonies, indicative of mating, was scored 3 days after incubation of plates at 30° C. […] Results of mating tests and halo assays were recorded by scanning plates with a Microtek flatbed scanner and importing digitized images into Photoshop and PowerPoint.

Abz-GGFLRKHGQ-EDDnp [3] = assay: Enzyme activity assay, kinetics of IDE and ATP binding site mutants with fluorogenic substrate; format: biochemical; details: rat IDE, Abz-GGFLRKHGQ-EDDnp as substrate
Description: Reactions were conducted in 50 mM Tris-HCl, pH 7.4.
as §1

[4] = TNP-ATP fluorescence measurements, IDE and ATP binding site mutants; details: 1.5 μM enzyme, 10 μM TNP-ATP, λexc=403 nm
Description: Fluorescence emission spectra were recorded on a Perkin-Elmer LS 55 Luminescence spectrometer with 1.5 μM of IDE, IDE^R429S or IDE^K898A,K899A,S901A in 50 mM Tris-HCl, pH 7.4 with 10 μM TNP-ATP. Fluorescence spectra were recorded with a λexc=403 nm.
TNP-ATP [2′,3′-O-(2,4,6-Trinitrophenyl)adenosine-5′-triphosphate] fluorescence was monitored at excitation and emission wavelengths of 403 nm and 547 nm, respectively, using a Perkin-Elmer LS55 Luminescence Spectrometer at 20±0.1° C. TNP-ATP (Molecular Probes, Inc.) as supplied was diluted to 4 mM with 50 mM Tris-HCl, pH 7.4, and added to achieve the indicated concentrations.

Molecule	ability to activate Abz-GGFLRKHGQ-EDDnp hydrolysis by IDE (IDE)	level of activation by ATP, of the wild type value (Abz-GGFLRKHGQ-EDDnp [1])	rate of Abz-GGFLRKHGQ-EDDnp hydrolysis with bradykinin, relative to wild type IDE (Abz-GGFLRKHGQ-EDDnp [2])	intracellular function relative to unmodified IDE (Saccharomyces cerevisiae)	Hill coefficient (Abz-GGFLRKHGQ-EDDnp [3])	Km (Abz-GGFLRKHGQ-EDDnp [3])	kcat (Abz-GGFLRKHGQ-EDDnp [3])	Vmax (Abz-GGFLRKHGQ-EDDnp [3]; 50 mM Tris-HCl, pH 7.4)	fluorescence associated with TNP-ATP binding, relative to wild type IDE [4]
Nc1ncnc2c1ncn2[C@@H]1O[C@H](COP(=O)(O)OP(=O)(O)CP(=O)(O)O)[C@@H](O)[C@H]1O [γ-methylene ATP]	nearly as well as ATP								
IDE^K898A,K899A,S901A: Rat IDE residues 41-1019 bearing the mutations K898A, K899A, S901A; ATP binding site mutant (protein, listed as Rattus norvegicus, wild-type Insulin Degrading Enzyme (IDE) from rat) MRNGLVWLLHPALPSTLHSILGARPPPVKRLCGFPKQIYSTMNNPAIQRIEDHIVKSPEDKREYRGLELANGIKVLLISDPTTDKSSAALDVHIGSLSDPPNIPGLSHFCEHMLFLGTKKYPKENEYSQFLSEHAGSSNAFTSGEHTNYYFDVSHEHLEGALDRFAQFFLCPLFDASCKDREVNAVDSEHEKNVMNDAWRLFQLEKATGNPKHPFSKFGTGNKYTLETRPNQEGIDVREELLKFHSTYYSSNLMAICVLGRESLDDLTNLVVKLFSEVENKNVPLPEFPEHPFQEEHLKQLYKIVPIKDIRNLYVTFPIPDLQQYYKSNPGHYLGHLIGHEGPGSLLSELKSKGWVNTLVGGQKEGARGFMFFIINVDLTEEGLLHVEDIILHMFQYIQKLRAEGPQEWVFQECKDLNAVAFRFKDKERPRGYTSKIAGKLHYYPLNGVLTAEYLLEEFRPDLIDMVLDKLRPENVRVAIVSKSFEGKTDRTEQWYGTQYKQEAIPEDVIQKWQNADLNGKFKLPTKNEFIPTNFEILALEKDATPYPALIKDTAMSKLWFKQDDKFFLPKACLNFEFFSPFAYVDPLHCNMAYLYLELLKDSLNEYAYAAELAGLSYDLQNTIYGMYLSVKGYNDKQPILLKKITEKMATFEIDKKRFEIIKEAYMRSLNNFRAEQPHQHAMYYLRLLMTEVAWTKDELKEALDDVTLPRLKAFIPQLLSRLHIEALLHGNITKQAALGVMQMVEDTLIEHAHTKPLLPSQLVRYREVQLPDRGWFVYQRRNEVHNNCGIEIYYQTDMQSTSENMFLELFCQIISEPCFNTLRTKEQLGYIVFSGPRRANGIQGLRFIIQSEKPPHYLESRVEAFLITMEKAIEDMTEEAFQKHIQALAIRRLDKPAALAAECAKYWGEIISQQYNYDRDNIEVAYLKTLSKDDIIKFYKEMLAVDAPRRHKVSVHVLAREMDSCPVVGEFPSQNDINLSEAPPLPQPEVIHNMTEFKRGLPLFPLVKPHINFMAAKL		even less activation	significantly reduced	reduced intracellular function	1.7 ± 0.1	17.3 ± 1 mM	0.258 ± 0.01 s⁻¹	140.8 ± 5.5 nmol/min/mg	lower fluorescent yield

— patent US8632989B1, “Mutant insulin degrading enzyme and methods of use” (University of Kentucky Research Foundation, priority 2011, dated 2014)
